Experiment [1] concerns the target T1, Full-length Human PSMA (TSC435), on cells (human, UniProt Q04609 1-750).
T1 construct: also called CHOK1SV/huPSMA; PSMA on C4-2B, 22RV1, LNCaP, MDA-PCa-2b cells
As to the kind of experiment: flow cytometry on C4-2B cells, PE goat anti-human IgG Fc secondary, MFI (median). The method, then: The PSMA-binding domain PSMA01023 was evaluated in several different structural formats, including an alternative Fc region with different mutations to eliminate effector function. The PSMA01023 binding domain was configured in scFv-Fc format in VL-VH (PSMA01036) and VH-VL (PSMA01037) orientations and in Fc-scFv format in VL-VH (PSMA01040) and VH-VL (PSMA01041) orientations. These molecules were evaluated for the impact of the orientation of the scFv domains (VH-VL versus VL-VH) and position on the Fc (N- vs. C-terminus) on binding to PSMA (+) tumor cells.
C4-2B and 22RV1 cells were labelled at approximately 100,000 cells per well, in 96-well plates, with serial dilutions of PSMA-binding constructs ranging from of 0.1 to 300 nM for 30 min on ice, followed by washes and incubation with PE-labeled minimum cross species reactive secondary antibody, goat anti-human IgG Fcγ, F(ab′)2 (Jackson Laboratory) for 30 minutes on ice. Washes and incubation were done in staining buffer (PBS with 0.2% BSA and 2 mM EDTA). Cells were collected using a BDM LSRII or a BD FACSymphony™ flow cytometer (BD Biosciences) and analyzed by FlowJo flow cytometry analysis software. Median fluorescence intensity (MFI) of bound molecules on cells was determined after exclusion of doublets. Graphs were plotted using GraphPad Prism 7®.
In general terms: Flow cytometry measures light scatter and fluorescence of single cells or particles in a stream.

Experiment [2] addresses T1, Full-length Human PSMA (TSC435), on …. Described as above. This is another data set of the same source.
Experiment [3] concerns the target T2, human CD3ε in the TCR/CD3 complex on Jurkat cells (human, UniProt P07766 23-207).
T2 construct: whole, on cells; On the cells it stands in the whole TCR/CD3 complex; also called CD3 (+) cells; CD3-expressing Jurkat cells
In words: flow cytometry on Jurkat cells, PE goat anti-human IgG Fc secondary, MFI (median).

T1 sequence (Q04609 whole entry): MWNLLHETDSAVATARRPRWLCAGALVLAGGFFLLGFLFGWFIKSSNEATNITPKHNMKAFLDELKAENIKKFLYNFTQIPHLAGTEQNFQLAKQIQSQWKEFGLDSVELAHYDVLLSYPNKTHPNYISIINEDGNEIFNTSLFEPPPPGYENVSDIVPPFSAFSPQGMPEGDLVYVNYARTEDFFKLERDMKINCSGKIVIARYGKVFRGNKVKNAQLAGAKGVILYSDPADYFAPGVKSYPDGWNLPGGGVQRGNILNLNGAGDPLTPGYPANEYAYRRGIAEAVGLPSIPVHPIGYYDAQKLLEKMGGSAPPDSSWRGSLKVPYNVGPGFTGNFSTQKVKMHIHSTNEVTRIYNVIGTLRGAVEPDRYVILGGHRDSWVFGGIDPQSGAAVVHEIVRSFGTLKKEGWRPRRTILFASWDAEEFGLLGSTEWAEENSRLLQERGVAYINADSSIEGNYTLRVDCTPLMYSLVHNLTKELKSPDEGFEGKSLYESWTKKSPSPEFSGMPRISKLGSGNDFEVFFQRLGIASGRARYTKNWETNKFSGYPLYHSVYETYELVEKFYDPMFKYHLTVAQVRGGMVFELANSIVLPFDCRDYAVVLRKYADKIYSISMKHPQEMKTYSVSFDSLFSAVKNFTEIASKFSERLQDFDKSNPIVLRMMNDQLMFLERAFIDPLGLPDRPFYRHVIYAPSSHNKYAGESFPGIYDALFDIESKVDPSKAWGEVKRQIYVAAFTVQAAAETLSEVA
T2 sequence (P07766 23-207, one chain of several): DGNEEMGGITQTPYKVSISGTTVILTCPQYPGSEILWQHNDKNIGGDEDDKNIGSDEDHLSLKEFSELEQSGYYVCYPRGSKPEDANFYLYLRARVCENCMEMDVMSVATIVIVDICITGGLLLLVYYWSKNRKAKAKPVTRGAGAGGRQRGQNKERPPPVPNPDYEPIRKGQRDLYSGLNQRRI

B1: PSMA01036 Anti-PSMA scFv-Fc (Fc fusion)
chain: DIQMTQSPSTLSASVGDRVTITCRASKSISKYLAWYQQKPGKAPKLLIHSGSSLESGVPSRFSGSGSGTEFTLTISSLQPDDFATYYCQQHIEYPWTFGQGTKVEIKGGGGSGGGGSGGGGSGGGGSQVQLVQSGAEVKKPGASVKVSCKASGYTFTDYYMHWVRQAPGQGLEWMGYFNPYNDYTRYAQKFQGRVTMTRDTSTSTVYMELSSLRSEDTAVYYCARSDGYYDAMDYWGQGTTVTVSSSEPKSSDKTHTCPPCPAPPAAAPSVFLFPPKPKDTLMISRTPEVTCVVVDVSHEDPEVKFNWYVDGVEVHNAKTKPREEQYNSTYRVVSVLTVLHQDWLNGKEYKCAVSNKALPAPIEKTISKAKGQPREPQVYTLPPSRDELTKNQVSLTCLVKGFYPSDIAVEWESNGQPENNYKTTPPVLDSDGSFFLYSKLTVDKSRWQQGNVFSCSVMHEALHNHYTQKSLSLSPGK
B1: the binding result in experiment [1] was “binds”.

B2: PSMA01041 Fc-linker-anti PSMA scFv (Fc fusion)
chain: SSEPKSSDKTHTCPPCPAPPAAAPSVFLFPPKPKDTLMISRTPEVTCVVVDVSHEDPEVKFNWYVDGVEVHNAKTKPREEQYNSTYRVVSVLTVLHQDWLNGKEYKCAVSNKALPAPIEKTISKAKGQPREPQVYTLPPSRDELTKNQVSLTCLVKGFYPSDIAVEWESNGQPENNYKTTPPVLDSDGSFFLYSKLTVDKSRWQQGNVFSCSVMHEALHNHYTQKSLSLSPGGGGSPSQVQLVQSGAEVKKPGASVKVSCKASGYTFTDYYMHWVRQAPGQGLEWMGYFNPYNDYTRYAQKFQGRVTMTRDTSTSTVYMELSSLRSEDTAVYYCARSDGYYDAMDYWGQGTTVTVSSGGGGSGGGGSGGGGSGGGGSDIQMTQSPSTLSASVGDRVTITCRASKSISKYLAWYQQKPGKAPKLLIHSGSSLESGVPSRFSGSGSGTEFTLTISSLQPDDFATYYCQQHIEYPWTFGQGTKVEIKR
With B2, in experiment [1], the binding result is “binds”.

B3: PSMA01086 Anti PSMA scFv x Fc; Anti PSMA scFv x Fc x linker x Anti CD3 scFv (bispecific antibody)
chain 1: QVQLVQSGAEVKKPGASVKVSCKASGYTFTDYYMHWVRQAPGQGLEWMGYFNPYNDYTRYAQKFQGRVTMTRDTSTSTVYMELSSLRSEDTAVYYCARSDGYYDAMDYWGQGTTVTVSSGGGGSGGGGSGGGGSGGGGSDIQMTQSPSSLSASVGDRVTITCRASKSISKYLAWYQQKPGKAPKLLIHSGSSLESGVPSRFSGSGSGTEFTLTISSLQPDDFATYYCQQHIEYPWTFGQGTKVEIKEPKSSDKTHTCPPCPAPPAAAPSVFLFPPKPKDTLMISRTPEVTCVVVDVSHEDPEVKFNWYVDGVEVHNAKTKPREEQYNSTYRVVSVLTVLHQDWLNGKEYKCAVSNKALPAPIEKTISKAKGQPREPQVYTLPPSRDELTKNQVSLWCLVKGFYPSDIAVEWESNGQPENNYKTTPPVLDSDGSFFLYSKLTVDKSRWQQGNVFSCSVMHEALHNHYTQKSLSLSPG
chain 2: QVQLVQSGAEVKKPGASVKVSCKASGYTFTDYYMHWVRQAPGQGLEWMGYFNPYNDYTRYAQKFQGRVTMTRDTSTSTVYMELSSLRSEDTAVYYCARSDGYYDAMDYWGQGTTVTVSSGGGGGGGGSGGGGSGGGGSDIQMTQSPSSLSASVGDRVTITCRASKSISKYLAWYQQKPGKAPKLLIHSGSSLESGVPSRFSGSGSGTEFTLTISSLQPDDFATYYCQQHIEYPWTFGQGTKVEIKEPKSSDKTHTCPPCPAPPAAAPSVFLFPPKPKDTLMISRTPEVTCVVVDVSHEDPEVKFNWYVDGVEVHNAKTKPREEQYNSTYRVVSVLTVLHQDWLNGKEYKCAVSNKALPAPIEKTISKAKGQPREPQVYTLPPSRDELTKNQVSLSCAVKGFYPSDIAVEWESNGQPENNYKTTPPVLDSDGSFFLVSKLTVDKSRWQQGNVFSCSVMHEALHNRFTQKSLSLSPGGGGSPSDIQMTQSPSSLSASVGDRVTITCRASSSVSYMNWYQQKPGKAPKRWIYDSSKLASGVPSRFSGSGSGTDFTLTISSLQPEDFATYYCQQWSRNPPTFGQGTKVEIKGGGGSGGGGSGGGGSGGGGSQVQLVQSGAEVKKPGASVKVSCKASGYTFTRSTMHWVRQAPGQGLEWIGYINPSSAYTNYAQKFQGRVTLTADKSTSTAYMELSSLRSEDTAVYYCASPQVHYDYNGFPYWGQGTLVTVSS
As usually defined, the EC50 is the concentration at which the effect is half-maximal. As for B3, the half-maximal effective concentration (EC50) is 1 nM in experiment [2] and more than 261 nM in experiment [3].

B4: PSMA01037 Anti-PSMA scFv-Fc (Fc fusion)
chain: QVQLVQSGAEVKKPGASVKVSCKASGYTFTDYYMHWVRQAPGQGLEWMGYFNPYNDYTRYAQKFQGRVTMTRDTSTSTVYMELSSLRSEDTAVYYCARSDGYYDAMDYWGQGTTVTVSSGGGGSGGGGSGGGGSGGGGSDIQMTQSPSTLSASVGDRVTITCRASKSISKYLAWYQQKPGKAPKLLIHSGSSLESGVPSRFSGSGSGTEFTLTISSLQPDDFATYYCQQHIEYPWTFGQGTKVEIKSSSEPKSSDKTHTCPPCPAPPAAAPSVFLFPPKPKDTLMISRTPEVTCVVVDVSHEDPEVKFNWYVDGVEVHNAKTKPREEQYNSTYRVVSVLTVLHQDWLNGKEYKCAVSNKALPAPIEKTISKAKGQPREPQVYTLPPSRDELTKNQVSLTCLVKGFYPSDIAVEWESNGQPENNYKTTPPVLDSDGSFFLYSKLTVDKSRWQQGNVFSCSVMHEALHNHYTQKSLSLSPGK
notes: also called PSMA010137
As for B4, the binding result in experiment [1] is “binds”.

B5: PSMA01040 Fc-linker anti PSMA scFv (Fc fusion)
chain: SSEPKSSDKTHTCPPCPAPPAAAPSVFLFPPKPKDTLMISRTPEVTCVVVDVSHEDPEVKFNWYVDGVEVHNAKTKPREEQYNSTYRVVSVLTVLHQDWLNGKEYKCAVSNKALPAPIEKTISKAKGQPREPQVYTLPPSRDELTKNQVSLTCLVKGFYPSDIAVEWESNGQPENNYKTTPPVLDSDGSFFLYSKLTVDKSRWQQGNVFSCSVMHEALHNHYTQKSLSLSPGGGGSPSDIQMTQSPSTLSASVGDRVTITCRASKSISKYLAWYQQKPGKAPKLLIHSGSSLESGVPSRFSGSGSGTEFTLTISSLQPDDFATYYCQQHIEYPWTFGQGTKVEIKGGGGSGGGGSGGGGSGGGGSQVQLVQSGAEVKKPGASVKVSCKASGYTFTDYYMHWVRQAPGQGLEWMGYFNPYNDYTRYAQKFQGRVTMTRDTSTSTVYMELSSLRSEDTAVYYCARSDGYYDAMDYWGQGTTVTVSSR
Take B5: the binding result in experiment [1] is “binds”.
